Measurements from paper PMC5413510, “An Analysis of Trafficking Receptors Shows that CD44 and P-Selectin Glycoprotein Ligand-1 Collectively Control the Migration of Activated Human T-Cells” (Frontiers in Immunology, 2017).
Values belong to the binder of their own block, whether it stands above or below them.

B2: P-selectin glycoprotein ligand-1 (PSGL-1) from activated human T-cells (natural protein, human (endogenous in activated T-cells), UniProt Q14242 42-412, looked up)
chain: QATEYEYLDYDFLPETEPPEMLRNSTDTTPLTGPGTPESTTVEPAARRSTGLDAGGAVTELTTELANMGNLSTDSAAMEIQTTQPAATEAQTTQPVPTEAQTTPLAATEAQTTRLTATEAQTTPLAATEAQTTPPAATEAQTTQPTGLEAQTTAPAAMEAQTTAPAAMEAQTTPPAAMEAQTTQTTAMEAQTTAPEATEAQTTQPTATEAQTTPLAAMEALSTEPSATEALSMEPTTKRGLFIPFSVSSVTHKGIPMAASNLSVNYPVGAPDHISVKQCLLAILILALVATIFFVCTVVLAVRLSRKGHMYPVRNYSPTEMVCISSLLPDGGEGPSATANGGLSKAKSPGLTPEPREDREGDDLTLHSFLP
modifications: O-glycans
notes: P-selectin glycoprotein ligand-1 (CD162), human; also called CD162
B3: recombinant mouse E-selectin/CD62E Fc chimera (E-Ig) (Fc fusion, UniProt Q00690 22-557, looked up)
chain: WYYNASSELMTYDEASAYCQRDYTHLVAIQNKEEINYLNSNLKHSPSYYWIGIRKVNNVWIWVGTGKPLTEEAQNWAPGEPNNKQRNEDCVEIYIQRTKDSGMWNDERCNKKKLALCYTASCTNASCSGHGECIETINSYTCKCHPGFLGPNCEQAVTCKPQEHPDYGSLNCSHPFGPFSYNSSCSFGCKRGYLPSSMETTVRCTSSGEWSAPAPACHVVECEALTHPAHGIRKCSSNPGSYPWNTTCTFDCVEGYRRVGAQNLQCTSSGIWDNETPSCKAVTCDAIPQPQNGFVSCSHSTAGELAFKSSCNFTCEQSFTLQGPAQVECSAQGQWTPQIPVCKAVQCEALSAPQQGNMKCLPSASGPFQNGSSCEFSCEEGFELKGSRRLQCGPRGEWDSKKPTCSAVKCDDVPRPQNGVMECAHATTGEFTYKSSCAFQCNEGFSLHGSAQLECTSQGKWTQEVPSCQVVQCPSLDVPGKMNMSCSGTAVFGTVCEFTCPDDWTLNGSAVLTCGATGRWSGMPPTCEAPVSPTRP
notes: E-selectin (CD62E), mouse; Mouse is named only in the flow cytometry methods; also called E-selectin-hIg chimera; recombinant E-selectin–Ig chimera; source: bought: R&D

Experiments:
[1] = biological target: CD44/HCELL from activated human T-cells (human (endogenous in activated T-cells))
[2] = biological target: B3; experiment: SPR; BIAcore CM5 chip; CD44 and PSGL-1 captured from activated T-cell lysate by immobilised mAbs; 10 E-Ig concentrations (0.456-466.7 nM) injected at 30 ul/min in 150 mM NaCl running buffer; KD from steady-state fit; apparent koff from the buffer wash after the last injection; apparent kon calculated (Eq. 1 in Supplementary Material); isotype control subtracted; conditions: both partners purified
[3] = biological target: B2; experiment: as above; conditions: both partners purified
[4] = biological target: CD44/HCELL from activated human T-cells (human (endogenous in activated T-cells)); experiment: as above

average velocity of CHO-E cells rolling over the immuno-purified ligand on a blot (blot rolling assay, 0.5 dyn cm^-2, 2 mM Ca2+) [1]: 3.3
B1: E-selectin on CHO cells expressing E-selectin (CHO-E) (receptor)
chain: WSYNTSTEAMTYDEASAYCQQRYTHLVAIQNKEEIEYLNSILSYSPSYYWIGIRKVNNVWVWVGTQKPLTEEAKNWAPGEPNNRQKDEDCVEIYIKREKDVGMWNDERCSKKKLALCYTAACTNTSCSGHGECVETINNYTCKCDPGFSGLKCEQIVNCTALESPEHGSLVCSHPLGNFSYNSSCSISCDRGYLPSSMETMQCMSSGEWSAPIPACNVVECDAVTNPANGFVECFQNPGSFPWNTTCTFDCEEGFELMGAQSLQCTSSGNWDNEKPTCKAVTCRAVRQPQNGSVRCSHSPAGEFTFKSSCNFTCEEGFMLQGPAQVECTTQGQWTQQIPVCEAFQCTALSNPERGYMNCLPSASGSFRYGSSCEFSCEQGFVLKGSKRLQCGPTGEWDNEKPTCEAVRCDAVHQPPKGLVRCAHSPIGEFTYKSSCAFSCEEGFELHGSTQLECTSQGQWTEEVPSCQVVKCSSLAVPGKINMSCSGEPVFGTVCKFACPEGWTLNGSAARTCGATGHWSGLLPTCEAPTESNIPLVAGLSAAGLSLLTLAPFLLWLRKCLRKAKKFVPASSCQSLESDGSYQKPSYIL

Binder: B2
Kd [2]: 467 nM
koff [2]: 2.5e-05 s⁻¹
kon [2]: 52 M⁻¹ s⁻¹

Binder: B3
stoichiometry N [3]: ≥ 2 E-selectin dimers per PSGL-1 dimer
Kd [4]: 777 nM
koff [4]: 4.9e-05 s⁻¹
kon [4]: 61 M⁻¹ s⁻¹
